Experimental data as given in patent US20170307628A1 (EIDGENOESSISCHE TECHNISCHE HOCHSCHULE ZURICH, published 2017).

Molecular target: T1, EGFR on cells (UniProt P00533 25-1210, limits assumed)
T1 construct: whole, on cells; also called epidermal growth factor receptor
Experiment: flow cytometry on MDA-MB-468 cells, anti-human-Alexa 488

binding result: no binding (tested: 100 nM)
B1: anti-CD3 antibody (COVA489) (antibody, human IgG1, kappa, V domains shown)
VH: QVQLQQSGAELARPGASVKMSCKASGYTFTRSTMHWVKQRPGQGLEWIGYINPSSAYTNYNQKFKDKATLTADKSSSTAYMQLSSLTSEDSAVYYCASPQVHYDYNGFPYWGQGTLVTVSA
VL: QVVLTQSPAIMSAFPGEKVTMTCSASSSVSYMNWYQQKSGTSPKRWIYDSSKLASGVPARFSGSGSGTSYSLTISSMETEDAATYYCQQWSRNPPTFGGGTKLQITR
